The values that follow come from US20210079074A1 (Alector, published 2021).

No end group written: not given here. *: point of attachment. Biotin = O=C1N[C@H]2[C@H](CS[C@H]2CCCCC(=O)*)N1

Test [1] concerns the target T1, peptide 4A.3 (human).
T1 peptide: Biotin-CMASNTYGSNPISVY
As to the kind of experiment: SPR array, biotin-peptide on streptavidin chip. The text has this: (§1) A panel of overlapping peptides derived from the extracellular loops (ECLs) of human MS4A4A (SEQ ID NO:1) were synthesized by JPT peptides (Berlin, Germany). These peptides were 15 amino acids in length, each offset by 2 amino acids. The peptides were biotinylated on the N-terminus. Peptides 4A.1 through 4A.4 were derived from human MS4A4A ECL1 and surrounding regions. Peptides 4A.5 through 4A.12 were derived from human MS4A4A ECL2 and surrounding regions.
(§2) The peptide library was printed onto a streptavidin-coated chip (Xantec SAD50M, Dusseldorf, Germany) using the Continuous Flow Microspotter (CFM). […] The peptide library was immobilized onto the chip at 250 nM per peptide diluted into HBS-EP+ buffer (Teknova Cat #H8022) with 1 mg/ml BSA and 1 μg/ml mouse IgG-Biotin. Following immobilization, the chip surface was deactivated with 1M ethanolamine at pH 8.5 for 10 minutes. Hybridoma supernatants and purified anti-MS4A4A antibodies were diluted in HBS-EP+ buffer with 1 mg/ml BSA and injected onto the chip. Duplicate measurements for each anti-MS4A4A antibody were taken to ensure reproducibility. Binding characteristics were determined for each peptide-antibody combination, allowing the mapping of the linear peptide region each antibody interacts with.

Test [2] concerns the target T2, peptide 4A.11 (human).
T2 peptide: Biotin-YYGNSNNCHGTMSIL
As to the kind of experiment: SPR array, biotin-peptide on streptavidin chip.
From the text: as §1, §2

Test [3] addresses T3, peptide 4A.5 (human).
T3 peptide: Biotin-LAFYSFHHPYCNYYG
As to the kind of experiment: SPR array, biotin-peptide on streptavidin chip.
From the text: as §1, §2

For test [4], the target named is T4, peptide 4A.9 (human, cysteine pairing not given here).
T4 peptide: Biotin-PYCNYYGNSNNCHGT
As to the kind of experiment: SPR array, biotin-peptide on streptavidin chip.
From the text: as §1, §2

Test [5] deals with T5, peptide 4A.7 (human).
T5 peptide: Biotin-SFHHPYCNYYGNSNN
As to the kind of experiment: SPR array, biotin-peptide on streptavidin chip.
From the text: as §1, §2

Test [6] has as its target T6, peptide 4A.4 (human).
T6 peptide: Biotin-ASNTYGSNPISVYIG
As to the kind of experiment: SPR array, biotin-peptide on streptavidin chip.
From the text: as §1, §2

Test [7] addresses T7, peptide 4A.8 (human, cysteine pairing not given here).
T7 peptide: Biotin-HHPYCNYYGNSNNCH
As to the kind of experiment: SPR array, biotin-peptide on streptavidin chip.
From the text: as §1, §2

Test [8] addresses T8, peptide 4A.1 (human).
T8 peptide: Biotin-ITMMCMASNTYGSNP
As to the kind of experiment: SPR array, biotin-peptide on streptavidin chip.
From the text: as §1, §2

In test [9] the target is T9, peptide 4A.2 (human).
T9 peptide: Biotin-MMCMASNTYGSNPIS
As to the kind of experiment: SPR array, biotin-peptide on streptavidin chip.
From the text: as §1, §2

The target of test [10] is T10, peptide 4A.10 (human, cysteine pairing not given here).
T10 peptide: Biotin-CNYYGNSNNCHGTMS
As to the kind of experiment: SPR array, biotin-peptide on streptavidin chip.
From the text: as §1, §2

The target of test [11] is T11, peptide 4A.6 (human).
T11 peptide: Biotin-FYSFHHPYCNYYGNS
As to the kind of experiment: SPR array, biotin-peptide on streptavidin chip.
From the text: as §1, §2

The target of test [12] is T12, peptide 4A.12 (human).
T12 peptide: Biotin-GNSNNCHGTMSILMG
As to the kind of experiment: SPR array, biotin-peptide on streptavidin chip.
From the text: as §1, §2

In test [13] the target is T13, recombinant MS4A4A soluble polypeptide JS1.
T13 construct: also called JS1.His; loop grafted antigen
As to the kind of experiment: ELISA, 1 ug/ml antibody. An outline of the steps:
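Humanized IgG1/kappa anti-MS4A4A antibodies, expressed in Expi293 and protein-A purified, were added at 1, 0.33 or 0.11 μg/ml to biotinylated antigens (1 μg/ml) captured on streptavidin plates. Binding ran 1 h at room temperature with shaking. Detection used HRP goat anti-human kappa.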

Test [14] has as its target T14, negative control polypeptide JS10.
T14 construct: negative control for JS5 and JS6; also called JS10.His
As to the kind of experiment: ELISA, biotin-antigen on streptavidin plate. Here is the method: (§3) Anti-MS4A4A antibodies of the present disclosure were tested for their ability to bind to the different recombinant MS4A4A soluble polypeptides, as described in Example 2, as follows. Nucleic acid encoding the VH and VL domains of humanized anti-MS4A4A antibodies of the present disclosure were cloned into pcDNA3.4 vector which contains either the human IgG1 heavy chain constant domain or human kappa constant domain. The humanized anti-MS4A4A antibodies were expressed in Expi293 cells and were purified by Mab select antibody purification resin (GE Healthcare Life Science, cat#17519902) following the manufacture's protocol. ELISA was performed to measure binding of anti-MS4A4A antibodies of the present disclosure the recombinant MS4A4A soluble polypeptides. 1 μg/ml biotinylated antigens were preincubated on the streptavidin-coated ELISA plates (Thermo Scientific, cat#PI15120) for 1 hour. Plates were washed 3 times, followed by the addition of antibodies (1 μg/ml, 0.33 μg/ml, and 0.11 μg/ml antibodies. Plates were incubated at room temperature with shaking for 1 hr, washed 3 times, then 1/2500 dilution of HRP conjugates goat anti human kappa antibodies added (SigmaAldrich cat#. A7164-1ML).
For orientation: In an ELISA, binding on a coated surface is turned into a signal by an enzyme label.

The target of test [15] is T13, recombinant MS4A4A soluble polypeptide …. As to the kind of experiment: ELISA, biotin-antigen on streptavidin plate. The protocol: as §3
In test [16] the target is T15, recombinant MS4A4A soluble polypeptide JS6.
T15 construct: also called JS6.His
As to the kind of experiment: ELISA, biotin-antigen on streptavidin plate. The protocol: as §3

Test [17] deals with T16, recombinant MS4A4A soluble polypeptide JS5.
T16 construct: also called JS5.His
As to the kind of experiment: ELISA, biotin-antigen on streptavidin plate. The protocol:
as §3

Test [18] addresses T17, negative control polypeptide JS4.
T17 construct: negative control for JS1; also called JS4.His
As to the kind of experiment: ELISA, biotin-antigen on streptavidin plate. The protocol: as §3

The target of test [19] is T16, recombinant MS4A4A soluble polypeptide …. As to the kind of experiment: ELISA, 0.4 ug/ml antibody.
Test [20] deals with T18, huMS4A4A-ECL2 free-peptide (human).
T18 construct: synthetic, free or BSA-conjugated, coated on the plate; also called human MS4A4A ECL2 peptide; huMS4A4A-ELC2 free-peptide
T18 peptide: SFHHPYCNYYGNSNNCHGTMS
As to the kind of experiment: peptide ELISA, murine antibody. The protocol: Coated plates were then blocked with ELISA diluent (PBS+0.5% BSA+0.05% Tween20) for 1-hour, washed 3×300 μL in PBST (PBS+0.05% Tween20, Thermo Cat#28352), and then the antibodies were added to the plate ([…]). After 30 mins incubation (room temperature, with shaking), the plates were washed 3×300 μL in PBST. […] After a final set of washes (3×300 μL in PBST), 50 μL of TMB substrate (BioFx Cat#TMBW-1000-01) was added and the reaction was then quenched after 5-10 mins with 50 μL of stop solution (BioFx Cat#BSTP-1000-01). The quenched reaction wells were detected for absorbance at […] with a BioTek Synergy Microplate Reader using GENS 2.04 software.

B1: anti-MS4A4A antibody 4A-21 (antibody, V domains shown)
VH: QIQLVQSGPELKKPGETVKISCKASGYIFTSYGLSWVKQTPGKGLKWMGWINTYSGVPTYANDFKGRFAFSLETSASTTYLRINNLKNDDTATYFCARSLVDYWGQGTPLTVSS
VL: not shown
notes: murine parental; tested as mouse IgG1 or as human IgG1 Fc chimera (hFc), told under assay; also called 4A-21.hFc
With B1, the SPR binding response in test [1] was -10.6; in [2], -6.5; in test [3], 383; in test [4], 225; in [5], 446; in [6], -7.9. Also, the SPR binding response was 309 in test [7]; -11.2 in test [8]; -11.5 in [9]; -4.5 in test [10]; 486 in test [11]; -5.2 in test [12]. The OD450 is 1.96 in test [13] and 0.925 in test [19]. The “ELISA OD” value in test [14] amounted to 0.112; in test [15] it was 2.02; in test [16], 1.67; in test [17], 1.73; in test [18], 0.138. The binding result in test [20] was “binds”.
